These results are taken from the supplement of paper PMC9112550, “Optimization of the antimicrobial peptide Bac7 by deep mutational scanning” (BMC Biology, 2022).
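Further: peptides expressed intracellularly from a pBAD plasmid library in pooled LB shake-flask culture, induced with 0.3% L-arabinose, DNA abundance read by NGS, three biological replicates, DESeq2 with apeglm shrinkage.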

The test system of this data set is Escherichia coli TOP10. Briefly: shrunken log2 fold change of peptide-encoding DNA abundance (4.5 h post-induction vs induction); higher = less antimicrobial activity (less host growth inhibition). Particulars: time post-induction: 4.5 h; library: site-saturation at positions 5, 18, 19, 20.
As to RRIRTRPPRLPRPRPRPWSLPRP, the “shrunken log2 fold change” value is -0.673.
With RRIRVRPPRLPRPRPRPMHQPRP the figure was 0.02; with RRIRKRPPRLPRPRPRPCIDPRP, -0.0418; with RRIRDRPPRLPRPRPRPHWHPRP, -0.192.
As for RRIRRRPPRLPRPRPRPADRPRP, the “shrunken log2 fold change” value turned out to be 0.00311.
Then RRIRTRPPRLPRPRPRPFCDPRP, with -0.268; and RRIRTRPPRLPRPRPRPPRYPRP, with 0.152.
For RRIRCRPPRLPRPRPRPKGDPRP, the “shrunken log2 fold change” value is -0.0659.
Then RRIRGRPPRLPRPRPRPCDYPRP, with 0.132; and RRIRERPPRLPRPRPRPCYLPRP, with -1.07.
Then RRIRVRPPRLPRPRPRPDVGPRP, with -0.13.
With RRIRLRPPRLPRPRPRPFEQPRP the figure was 0.305; with RRIRRRPPRLPRPRPRPVMCPRP, 0.0382; with RRIRIRPPRLPRPRPRPHERPRP, -0.169.
On to RRIRERPPRLPRPRPRPGSDPRP, for which the “shrunken log2 fold change” value was -0.369.
Then RRIRYRPPRLPRPRPRPRWEPRP, with -0.0931; and RRIRSRPPRLPRPRPRPFRNPRP, with -0.225; and RRIRKRPPRLPRPRPRPCWHPRP, with 0.00832.
For the sequence RRIRARPPRLPRPRPRPKPKPRP, the “shrunken log2 fold change” value came to 0.936.
With RRIRNRPPRLPRPRPRPTSNPRP the figure was -0.615; with RRIRWRPPRLPRPRPRPIFQPRP, -0.103; with RRIRRRPPRLPRPRPRPVRCPRP, 0.424.
Then RRIRWRPPRLPRPRPRPIIFPRP, with -0.303.
For the sequence RRIRHRPPRLPRPRPRPLKMPRP, the “shrunken log2 fold change” value is -0.182.
Take RRIRPRPPRLPRPRPRPGRDPRP: the “shrunken log2 fold change” value turned out to be 0.286.
As for RRIRVRPPRLPRPRPRPAAEPRP, the “shrunken log2 fold change” value stood at 0.109.
Then RRIRDRPPRLPRPRPRPDLFPRP, with 0.0296; and RRIRRRPPRLPRPRPRPSNDPRP, with -0.162.
Then RRIRMRPPRLPRPRPRPINHPRP, with -0.173; and RRIRNRPPRLPRPRPRPDLTPRP, with -0.112; and RRIRNRPPRLPRPRPRPEYQPRP, with 0.00318.
With RRIRIRPPRLPRPRPRPELTPRP, the “shrunken log2 fold change” value was -0.0457.
With RRIRWRPPRLPRPRPRPDNCPRP the figure was -0.015.
Then RRIRMRPPRLPRPRPRPDSIPRP, with 0.0402.
As for RRIRQRPPRLPRPRPRPGWQPRP, the “shrunken log2 fold change” value is -0.00211.
Then RRIRNRPPRLPRPRPRPKLPPRP, with 0.0992; and RRIRERPPRLPRPRPRPVYYPRP, with 0.0224.
With RRIRARPPRLPRPRPRPSSIPRP the figure was 0.101; with RRIRKRPPRLPRPRPRPVGKPRP, -0.163.
With RRIRMRPPRLPRPRPRPQNYPRP the figure was -0.377; with RRIRNRPPRLPRPRPRPCPDPRP, -0.0721; with RRIRVRPPRLPRPRPRPHVKPRP, -0.0504.
In the case of RRIRARPPRLPRPRPRPPEDPRP, the “shrunken log2 fold change” value amounted to 0.308.
On to RRIRERPPRLPRPRPRPDLWPRP, for which the “shrunken log2 fold change” value was -0.141.
With RRIRCRPPRLPRPRPRPYQHPRP the figure was -0.381; with RRIRIRPPRLPRPRPRPNLMPRP, -0.377.
Then RRIRVRPPRLPRPRPRPFYEPRP, with -0.453; and RRIRERPPRLPRPRPRPSENPRP, with -0.293; and RRIRVRPPRLPRPRPRPNCWPRP, with 0.0329.
Then RRIRIRPPRLPRPRPRPMKPPRP, with -0.00581; and RRIRCRPPRLPRPRPRPCICPRP, with -0.105.
As for RRIRCRPPRLPRPRPRPPSMPRP, the “shrunken log2 fold change” value amounted to 0.0264.
Then RRIRERPPRLPRPRPRPDVYPRP, with -0.301; and RRIRKRPPRLPRPRPRPTCDPRP, with -0.00872.
With RRIRQRPPRLPRPRPRPCWEPRP, the “shrunken log2 fold change” value is -0.126.
Then RRIRIRPPRLPRPRPRPTGCPRP, with -0.0215; and RRIRPRPPRLPRPRPRPGESPRP, with -0.0364.
RRIRDRPPRLPRPRPRPQVCPRP: the “shrunken log2 fold change” value was 0.19.
In the case of RRIRCRPPRLPRPRPRPLHKPRP, the “shrunken log2 fold change” value is -0.0345.
Consider RRIRNRPPRLPRPRPRPRYYPRP, for which the “shrunken log2 fold change” value is -0.705.
As for RRIRERPPRLPRPRPRPLSDPRP, the “shrunken log2 fold change” value was -0.0828.
With RRIRRRPPRLPRPRPRPRPQPRP the figure was 0.541; with RRIRSRPPRLPRPRPRPWKLPRP, -0.221.
With RRIRPRPPRLPRPRPRPFEMPRP, the “shrunken log2 fold change” value is 0.0143.
With RRIRIRPPRLPRPRPRPQDKPRP the figure was -0.855.
With RRIRKRPPRLPRPRPRPNSLPRP the figure was -0.00111; with RRIRSRPPRLPRPRPRPRLYPRP, 0.114.
Then RRIRKRPPRLPRPRPRPQKQPRP, with -0.0697; and RRIRARPPRLPRPRPRPDCEPRP, with 1; and RRIRIRPPRLPRPRPRPDILPRP, with -0.354.
Consider RRIRSRPPRLPRPRPRPPDAPRP, for which the “shrunken log2 fold change” value amounted to 0.415.
With RRIRRRPPRLPRPRPRPKFMPRP the figure was 0.122.
Consider RRIRVRPPRLPRPRPRPGTTPRP, for which the “shrunken log2 fold change” value is -0.108.
As for RRIRFRPPRLPRPRPRPSNTPRP, the “shrunken log2 fold change” value was -0.422.
With RRIRMRPPRLPRPRPRPEWFPRP the figure was 0.0369.
With RRIRKRPPRLPRPRPRPCVPPRP the figure was -0.14; with RRIRSRPPRLPRPRPRPCQLPRP, -0.163.
In the case of RRIRMRPPRLPRPRPRPKCCPRP, the “shrunken log2 fold change” value was determined as 0.26.
As for RRIRHRPPRLPRPRPRPCRMPRP, the “shrunken log2 fold change” value stood at 0.0591.
Regarding RRIRCRPPRLPRPRPRPREQPRP, the “shrunken log2 fold change” value was found to be 0.312.
With RRIRYRPPRLPRPRPRPFSFPRP the figure was -0.35.
For the sequence RRIRGRPPRLPRPRPRPRCGPRP, the “shrunken log2 fold change” value was 0.751.
Turning to RRIRERPPRLPRPRPRPNQFPRP, the “shrunken log2 fold change” value is -0.525.
Then RRIRDRPPRLPRPRPRPKGKPRP, with 0.142; and RRIRARPPRLPRPRPRPNFEPRP, with 0.356.
With RRIRERPPRLPRPRPRPLFCPRP the figure was -0.211.
Turning to RRIRSRPPRLPRPRPRPMQNPRP, the “shrunken log2 fold change” value was 0.22.
With RRIRERPPRLPRPRPRPNILPRP the figure was -0.991.
Then RRIRPRPPRLPRPRPRPMHRPRP, with 0.0978; and RRIRTRPPRLPRPRPRPTDCPRP, with 0.0577.
For RRIRHRPPRLPRPRPRPPNCPRP, the “shrunken log2 fold change” value is -0.19.
